# Source: article PMC7748142, “ATM inhibition enhances Auranofin-induced oxidative stress and cell death in lung cell lines” (PLoS ONE, 2020)
# B1: peroxiredoxin 1 (PRDX1) (enzyme, human (endogenous in HEK 293T and A549), UniProt Q06830 1-199, looked up)
# chain: MSSGNAKIGHPAPNFKATAVMPDGQFKDISLSDYKGKYVVFFFYPLDFTFVCPTEIIAFSDRAEEFKKLNCQVIGASVDSHFCHLAWVNTPKKQGGLGPMNIPLVSDPKRTIAQDYGVLKADEGISFRGLFIIDDKGILRQITVNDLPVGRSVDETLRLVQAFQFTDKHGEVCPAGWKPGSDTIKPDVQKSKEYFSKQK
# notes: peroxiredoxin 1, endogenous in human cell lines, detected by anti-PRDX1 blot; source: endogenous, HEK 293T lysate (trapping); endogenous, A549 lysate (dimer analysis)
# B2: peroxiredoxin 3 (PRDX3), A549 cells (enzyme, human (endogenous in A549), UniProt P30048 62-256, looked up)
# chain: APAVTQHAPYFKGTAVVNGEFKDLSLDDFKGKYLVLFFYPLDFTFVCPTEIVAFSDKANEFHDVNCEVVAVSVDSHFSHLAWINTPRKNGGLGHMNIALLSDLTKQISRDYGVLLEGSGLALRGLFIIDPNGVIKHLSVNDLPVGRSVEETLRLVKAFQYVETHGEVCPANWTPDSPTIKPSPAASKEYFQKVNQ
# notes: peroxiredoxin 3, endogenous in A549 cells, detected by anti-PRDX3 blot; source: endogenous, A549 lysate
# B3: peroxiredoxin 3 (PRDX3), murine lung fibroblasts (enzyme, mouse (endogenous in MLFs), UniProt P20108 63-257, looked up)
# chain: TPAVTQHAPYFKGTAVVNGEFKELSLDDFKGKYLVLFFYPLDFTFVCPTEIVAFSDKANEFHDVNCEVVAVSVDSHFSHLAWINTPRKNGGLGHMNITLLSDITKQISRDYGVLLESAGIALRGLFIIDPNGVVKHLSVNDLPVGRSVEETLRLVKAFQFVETHGEVCPANWTPESPTIKPSPTASKEYFEKVHQ
# notes: peroxiredoxin 3, endogenous in murine lung fibroblasts, detected by anti-PRDX3 blot; source: endogenous, murine lung fibroblast (MLF) lysate
# Target: the molecule itself
# Assay: non-reducing SDS-PAGE with Western blot; A549 or MLF cells treated with Auranofin (A549: 10 uM, MLF: 2 uM) alone or with KU55933 (10 uM, 1 h pre-treatment); lysed in CHAPS buffer with 100 mM NEM; boiled in non-reducing sample buffer; disulfide-linked dimers
row,Protein,stoichiometry N
1,B1,2
2,B2,2
3,B3,2
